Experimental data: patent US20260034233A1 (SUNMED THERAPEUTIC, published 2026)
Values belong to the binder of their own block, whether it stands above or below them.

What was measured:
human Galectin-3 [1] = target: T1, human Galectin-3 (human, UniProt P17931 2-250, limits assumed); experiment: ELISA on human Galectin-3
T1 construct: also called Human GAL-3; hGal-3

human Galectin-3 [2] = target: T1, human Galectin-3; experiment: SPR
Mouse GAL-3 = target: T2, Mouse GAL-3 (mouse, UniProt P16110 2-264, limits assumed); experiment: SPR
T2 construct: also called mouse Galectin-3

Rat GAL-3 = target: T3, Rat GAL-3 (rat, UniProt P08699 2-262, limits assumed); experiment: SPR
T3 construct: also called rat Galectin-3
T3 sequence (looked up): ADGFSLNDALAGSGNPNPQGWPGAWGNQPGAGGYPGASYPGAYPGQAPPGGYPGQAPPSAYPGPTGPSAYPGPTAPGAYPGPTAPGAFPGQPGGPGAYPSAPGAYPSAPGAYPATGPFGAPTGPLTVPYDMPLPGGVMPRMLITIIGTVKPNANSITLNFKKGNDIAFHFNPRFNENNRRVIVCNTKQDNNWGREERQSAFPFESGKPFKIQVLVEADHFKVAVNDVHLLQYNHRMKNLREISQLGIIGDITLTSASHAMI

Gal3-e = target: T4, Gal3-e; experiment: size exclusion chromatography of the mixture
T4 construct: also called Galectin3-e; Gal-3 peptide
T4 peptide: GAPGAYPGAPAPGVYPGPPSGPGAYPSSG
Procedure: For X-ray diffraction, first we developed a homogeneous Gal3-e-Fab complex through Size Exclusion Chromatography (SEC) and analyzed the complex through crystallization screening and optimization. However, no diffraction patterns but only large block- and rod-shaped crystals were observed by multi-rounds of optimization. Screened commercial kits included crystal screens, structure screens, Index, JCSG plus, PEG/Ion1&2, ProPlex screens, and additive screens.
Excess Gal3-e were incubated with the Fab on ice for 30 minutes. After the incubation, Gal3-e-Fab complex was isolated from the mixture using SEC (Column: Superdex 75 increase 10/300).

T1 sequence (P17931 2-250 limits assumed): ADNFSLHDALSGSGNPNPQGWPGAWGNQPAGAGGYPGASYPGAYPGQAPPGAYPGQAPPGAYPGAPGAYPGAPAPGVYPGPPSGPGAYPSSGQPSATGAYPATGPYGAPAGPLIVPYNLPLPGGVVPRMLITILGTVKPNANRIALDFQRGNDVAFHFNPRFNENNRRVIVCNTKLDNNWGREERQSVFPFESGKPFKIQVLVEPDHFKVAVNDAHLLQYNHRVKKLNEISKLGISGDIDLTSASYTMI
T2 sequence (P16110 2-264 limits assumed): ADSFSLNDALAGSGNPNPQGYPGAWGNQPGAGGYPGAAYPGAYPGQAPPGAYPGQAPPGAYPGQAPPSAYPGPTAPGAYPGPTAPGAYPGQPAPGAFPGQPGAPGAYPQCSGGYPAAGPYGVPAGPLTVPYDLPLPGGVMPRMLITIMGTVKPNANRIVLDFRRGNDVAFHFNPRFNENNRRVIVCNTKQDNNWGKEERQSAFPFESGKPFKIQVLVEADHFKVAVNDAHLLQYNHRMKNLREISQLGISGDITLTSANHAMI

binding result (human Galectin-3 [1]): binds
B1: SIF002 (antibody, V domains shown)
VH: EVQLLESGGGLVQPGGSLRLSCAASGFTFSRFWMSWVRQAPGKGLEWVSEISPDSNTIDLTPSLKDRFTISRDNSKNTLYLQMNSLRAEDTAVYYCAKPYYGYYWGQGTLVTVSS
VL: DIVMTQSPDSLAVSLGERATMNCRSSQSLFSSTNQKNYLTWYQQKPGQPPKLLIYWASSRESGVPDRFSGSGSGTDFTLTISSLQAEDVAVYYCQNDYTSPFTFGQGTRLEIK

Kd (human Galectin-3 [2]): 71.5 nM
Kd (Mouse GAL-3): 10.9 nM
Kd (Rat GAL-3): 11.7 nM
B2: SIF001 (antibody, V domains shown)
VH: QVQLVQSGSELKKPGASVKVSCKASGYTFTNYGMNWVRQAPGQGLEWMGWINTYTGEPTYADDFKGRFVFSLDTSVSTAYLQISSLKNEDMAVYFCARYAMDYWGQGTLVTVSS
VL: EAVVTQEPSLTVSPGGTVTLTCRSSTGAVTTSNYANWVQQKPGQAFTGLIGGTSNRAPGTPARFSGSLLGDKAALTLLGAQPEDEAEYFCALWYSTHYVFGGGTKLTVL
notes: Humanized monoclonal antibody raised against human GAL-3; also called SIF001 Ab; SF001

binding result (Gal3-e): binds
B3: Fab of the SIF001 antibody (Fab, V domains shown)
VH: QVQLVQSGSELKKPGASVKVSCKASGYTFTNYGMNWVRQAPGQGLEWMGWINTYTGEPTYADDFKGRFVFSLDTSVSTAYLQISSLKNEDMAVYFCARYAMDYWGQGTLVTVSS
VL: EAVVTQEPSLTVSPGGTVTLTCRSSTGAVTTSNYANWVQQKPGQAFTGLIGGTSNRAPGTPARFSGSLLGDKAALTLLGAQPEDEAEYFCALWYSTHYVFGGGTKLTVL
